± gives the standard deviation of the averaged measurements.
tested on: ATP; assay: switch fluorescence ratio, 500 uM ATP over buffer (Cy3 cluster intensity, sum of 5 cycles each) (fold (ratio)); higher = stronger signal-on switching upon ATP binding; sequences stand for … in TCGTCGGCAGCGTCAGATGTGTATAAGAGACAGTTTTTTTTTTTTTTTTTTTTTTTTT…TC; details: aptamer strand: ATP DNA aptamer (quencher-CACCTGGGGGAGTATTGCGGAGGAAGG + anchor), 100 nM annealed; ATP concentration: 500 uM
How it was run: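 Values give the fluorescence ratio for each switch-domain sequence, averaged from per-cluster ratios of summed target-cycle to summed buffer-cycle Cy3 intensity. The Cy3-labelled switching-strand clusters sat on a modified Illumina MiSeq flow-cell, were annealed to 100 nM quencher-labelled ATP aptamer, and were imaged in selection buffer, then after 15 min with 500 uM ATP at 22 °C. Five cycles ran with NaOH stripping and re-annealing between them, and clusters outside 100-1000 RFU were excluded.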
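Further: ATP exposure 15 min at 22 °C before imaging.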

Sequence | switch fluorescence ratio
TTAAGGGCCA | 0.9709 ± 0.0035
TTAAGGGGA | 1.06 ± 0.11
TTAAGGGGTT | 1.03 ± 0.044
TTAAGGGTTG | 1.02 ± 0.019
TTAAGTACGA | 1.27 ± 0.041
TTAAGTGCCC | 1 ± 0.021
TTAAGTTCTT | 0.996 ± 0.019
TTAAGTTGGT | 0.997 ± 0.045
TTAATAAATC | 0.996 ± 0.021
TTAATAAATG | 1 ± 0.015
TTAATAGTTG | 0.97177 ± 0.00065
TTAATATCCT | 1.06 ± 0.026
TTAATCAGGT | 1.01 ± 0.016
TTAATCCAGT | 1.02 ± 0.035
TTAATCGATG | 1 ± 0.019
TTAATGCAGG | 1.006 ± 0.006
TTAATGCTTT | 1.13 ± 0.23
TTAATGGTAT | 1.02 ± 0.021
TTAATGTTTG | 0.997 ± 0.042
TTAATTAACC | 1.13 ± 0.098
TTAATTAATA | 0.985 ± 0.013
TTAATTAATG | 1.05 ± 0.089
TTAATTACGG | 1.01 ± 0.017
TTAATTAGGT | 1.02 ± 0.071
TTAATTCCAG | 1.01 ± 0.029

Sequence | switch fluorescence ratio
TTAATTGTTT | 0.989 ± 0.018
TTAATTTATG | 0.976 ± 0.035
TTAATTTTCC | 1.46 ± 0.49
TTACAACGTA | 1 ± 0.013
TTACAAGGAC | 1.049 ± 0.0089
TTACACTTGT | 1 ± 0.032
TTACAGCCTG | 1 ± 0.04
TTACAGGGAG | 1.02 ± 0.01
TTACAGTCGT | 1.03 ± 0.022
TTACATGAAT | 1.04 ± 0.033
TTACATGTCC | 1.039 ± 0.0089
TTACATTTTA | 1.02 ± 0.015
TTACCACAGC | 1.05 ± 0.041
TTACCAGATT | 0.982 ± 0.033
TTACCATCCT | 1.19 ± 0.029
TTACCCAGAG | 1.1 ± 0.064
TTACCCTGGG | 1.07 ± 0.074
TTACCGACGG | 1.1 ± 0.069
TTACCTCCGT | 2.19 ± 0.14
TTACCTTTGT | 1.05 ± 0.024
TTACGAGGCG | 1.004 ± 0.0032
TTACGCGAAA | 2.57 ± 2.1
TTACGGAGGG | 1.02 ± 0.038
TTACGGCTGC | 1.03 ± 0.058
TTACGGGCAC | 1.18 ± 0.012

Sequence | switch fluorescence ratio
TTACGGGGGT | 1.017 ± 0.01
TTACGGGGTT | 0.988 ± 0.035
TTACGGTGAC | 1.17 ± 0.059
TTACGGTTTT | 1.01 ± 0.023
TTACGTGTGA | 1.05 ± 0.073
TTACGTTCTT | 1.048 ± 0.0096
TTACTACGTA | 1.04 ± 0.059
TTACTCGGGA | 1.04 ± 0.012
TTACTCGGGC | 0.999 ± 0.019
TTACTCTTCT | 0.972 ± 0.04
TTACTGAAAA | 1.04 ± 0.025
TTACTGAACT | 1.19 ± 0.025
TTACTGGGGA | 1.04 ± 0.011
TTACTTATCT | 1.02 ± 0.033
TTACTTCGTA | 1.06 ± 0.07
TTACTTTGGG | 0.9892 ± 0.0065
TTACTTTTGT | 1.021 ± 0.0039
TTAGAAAGTT | 1.03 ± 0.091
TTAGAAATAT | 1.01 ± 0.016
TTAGAAATTT | 1.01 ± 0.02
TTAGAATTAG | 1 ± 0.017
TTAGACAAGG | 0.95377 ± 0.00078
TTAGACACAA | 1.01 ± 0.046
TTAGACTCTG | 1.05 ± 0.071
TTAGACTTTT | 1.03 ± 0.012

Sequence | switch fluorescence ratio
TTAGAGAGCG | 1.018 ± 0.0096
TTAGAGTATA | 1 ± 0.00038
TTAGAGTGCA | 1.02 ± 0.019
TTAGATATTT | 0.98 ± 0.024
TTAGATCGCC | 0.969 ± 0.027
TTAGATCGGG | 0.989 ± 0.011
TTAGATGAAT | 1 ± 0.033
TTAGCACGTC | 1.076 ± 0.0074
TTAGCCCATG | 1.03 ± 0.029
TTAGCGAAGG | 1.003 ± 0.0046
TTAGCGCTTT | 0.9853 ± 0.0082
TTAGCGGCTG | 0.9585 ± 0.0026
TTAGCGGGAT | 1.01 ± 0.044
TTAGCGTGGG | 0.99 ± 0.023
TTAGCGTTGT | 0.96 ± 0.028
TTAGCTGGTG | 1.07 ± 0.067
TTAGCTGTGC | 1.02 ± 0.067
TTAGCTGTTT | 0.995 ± 0.035
TTAGCTTGGT | 0.999 ± 0.043
TTAGCTTGTA | 1.07 ± 0.088
TTAGCTTTTT | 1.01 ± 0.054
TTAGGAATTT | 1.05 ± 0.075
TTAGGACGAT | 0.997 ± 0.051
TTAGGAGAGC | 0.979 ± 0.014
TTAGGAGATG | 0.9802 ± 0.0059

Sequence | switch fluorescence ratio
TTAGGAGGGA | 0.9949 ± 0.0064
TTAGGATAAT | 1.031 ± 0.0072
TTAGGCCGGC | 0.988 ± 0.11
TTAGGCGAGG | 1.08 ± 0.16
TTAGGCGGCA | 0.974 ± 0.034
TTAGGCGGGA | 0.995 ± 0.046
TTAGGCTACT | 1.01 ± 0.035
TTAGGGAAGG | 0.993 ± 0.02
TTAGGGAATG | 1 ± 0.07
TTAGGGACAG | 0.987 ± 0.027
TTAGGGACGC | 1.08 ± 0.025
TTAGGGAGGG | 0.998 ± 0.032
TTAGGGCCTA | 0.9844 ± 0.0097
TTAGGGGATG | 1.026 ± 0.0098
TTAGGGGCGA | 0.994 ± 0.012
TTAGGGGGAA | 1.01 ± 0.025
TTAGGGGGG | 1.01 ± 0.026
TTAGGGGGTT | 1.04 ± 0.062
TTAGGGTAGG | 0.97 ± 0.039
TTAGGGTATG | 1.03 ± 0.029
TTAGGGTGAT | 0.974 ± 0.059
TTAGGGTGTT | 1 ± 0.07
TTAGGGTTCC | 0.992 ± 0.035
TTAGGTAGGG | 0.988 ± 0.028
TTAGGTCATG | 0.9877 ± 0.0034

Sequence | switch fluorescence ratio
TTAGGTCTTC | 1.02 ± 0.014
TTAGGTGCAA | 1.17 ± 0.11
TTAGGTTTTT | 1.08 ± 0.19
TTAGTAAAAT | 1.01 ± 0.017
TTAGTAAACA | 1.01 ± 0.049
TTAGTAAGGA | 1.009 ± 0.0086
TTAGTAAGGT | 1.01 ± 0.059
TTAGTACGAT | 1.018 ± 0.0096
TTAGTATGAC | 1.02 ± 0.042
TTAGTCACGC | 1.029 ± 0.0092
TTAGTCAGGA | 1.04 ± 0.057
TTAGTGCGGA | 0.994 ± 0.012
TTAGTGGGGC | 1.03 ± 0.041
TTAGTTGAAT | 0.985 ± 0.04
TTATAAAACC | 1.02 ± 0.028
TTATAAAGGT | 1.03 ± 0.079
TTATAACTCG | 0.995 ± 0.035
TTATAAGAGT | 0.987 ± 0.025
TTATAAGCAG | 1.02 ± 0.017
TTATAAGGGG | 0.979 ± 0.04
TTATAAGTAT | 1 ± 0.031
TTATAATGGG | 0.988 ± 0.025
TTATACCGTT | 0.999 ± 0.01
TTATACGGTT | 1.01 ± 0.012
TTATAGAAGA | 1.01 ± 0.0082

Sequence | switch fluorescence ratio
TTATAGATGT | 0.992 ± 0.027
TTATAGCACC | 1.06 ± 0.021
TTATAGGCGC | 1.03 ± 0.029
TTATAGTTGA | 0.9944 ± 0.0015
TTATAGTTTC | 1.03 ± 0.057
TTATATAAGT | 1.02 ± 0.023
TTATATCCGT | 1.01 ± 0.031
TTATATGAGG | 0.962 ± 0.045
TTATATGGGA | 1.01 ± 0.018
TTATATGTTG | 1.02 ± 0.026
TTATATTAG | 0.9817 ± 0.001
TTATATTAGA | 0.971 ± 0.0099
TTATATTCCT | 1.11 ± 0.048
TTATATTGTT | 0.984 ± 0.017
TTATCAAGGG | 0.975 ± 0.025
TTATCCAATT | 0.9804 ± 0.0089
TTATCCGGCG | 0.986 ± 0.056
TTATCCTGGG | 1.01 ± 0.023
TTATCGAGGA | 0.973 ± 0.021
TTATCGTATT | 0.9872 ± 0.0053
TTATCGTGTT | 0.984 ± 0.042
TTATCTGTTG | 1 ± 0.058
TTATGAAATG | 1 ± 0.025
TTATGACAAC | 1.015 ± 0.0044
TTATGACCAG | 1.009 ± 0.0095

Sequence | switch fluorescence ratio
TTATGAGCAA | 1.8 ± 0.096
TTATGAGCGG | 1.02 ± 0.048
TTATGAGGTT | 1.02 ± 0.026
TTATGCAGGG | 1.01 ± 0.012
TTATGCATGT | 1.02 ± 0.038
TTATGCGGTG | 1.0223 ± 0.00072
TTATGCTAAA | 0.994 ± 0.04
TTATGGAAGA | 0.98 ± 0.026
TTATGGCTGA | 0.988 ± 0.017
TTATGGCTTT | 0.985 ± 0.018
TTATGGGCAA | 1.1 ± 0.02
TTATGGGCTT | 1.27 ± 0.42
TTATGGGGAG | 1.005 ± 0.0034
TTATGGGGGT | 1.01 ± 0.03
TTATGGGGTT | 0.999 ± 0.043
TTATGGTAAC | 1.04 ± 0.018
TTATGGTGAA | 0.956 ± 0.049
TTATGGTTGG | 0.995 ± 0.012
TTATGTCAGA | 0.987 ± 0.034
TTATGTGACG | 0.994 ± 0.082
TTATGTGGGG | 0.993 ± 0.033
TTATGTTTCT | 0.972 ± 0.026
TTATTACT | 0.981 ± 0.011
TTATTAGTAT | 1.02 ± 0.016
TTATTCCATA | 0.98429 ± 0.00091
